According to US20150166663A1 (AstraZeneca / MedImmune, published 2015):
Residue numbers refer to the chain shown, from its start. Values belong to the binder of their own block, whether it stands above or below them.

What was measured:
cynomolgus αVβ6 on cells [1] = target: T1, cynomolgus αVβ6 on cells (cynomolgus); assay: FACS, purified mAb, transiently transfected HEK-293 cells
T1 construct: whole, on cells; also called macaque αVβ6; Mac AVB6
Procedure: (§1) Cross-reactivity of the mAbs to macaque and mouse αVβ6 was tested on the purified mAbs using FACS analysis on HEK-293 cells transiently transfected with cynomolgus or mouse αV, β6, or αVβ6. Approximately 48 hours after transfection, the cells were collected and resuspended in FACS buffer to reach a final concentration of approximately 50,000 cells in 100 μL.
(§2) Approximately 100,000 cells total, were used in each reaction as follows. 200 μL of 293 cells were dispensed into a V-bottom plate. The cells in the plate were pelleted at 1500 rpm for 3 minutes, and then resuspended in 100 μL FACS buffer. The pelleting step was repeated, and the FACS buffer supernatant was removed. The purified mAbs, or control primary antibodies were added in a volume of 50 μL and the cells were resuspended. […] The plate was incubated on ice for 45 minutes, after which 100 μL FACS buffer was added to dilute the primary antibody. The cells were then pelleted by centrifuging at 1500 rpm for 3 minutes, and the pellet was resuspended in 100 μL FACS buffer. The pelleting step was repeated, and the FACS buffer supernatant was removed. Cells were then resuspended in the appropriate secondary antibody (5 μg/ml) with 7AAD dye (10 μg/ml), and stained on ice for 7 minutes. Then 150 μL of FACS buffer was added and the cells were pelleted at 1500 rpm for 3 minutes, after which the cells were washed in 100 μL FACS buffer, pelleted, and then resuspended in 250 μL buffer and added to FACS tubes. Samples were analyzed on a high throughput FACS machine and analyzed using Cell Quest Pro software.

[2] = target: T2, cynomolgus β6 on transfected HEK-293 cells (cynomolgus); assay: as above
T2 chain: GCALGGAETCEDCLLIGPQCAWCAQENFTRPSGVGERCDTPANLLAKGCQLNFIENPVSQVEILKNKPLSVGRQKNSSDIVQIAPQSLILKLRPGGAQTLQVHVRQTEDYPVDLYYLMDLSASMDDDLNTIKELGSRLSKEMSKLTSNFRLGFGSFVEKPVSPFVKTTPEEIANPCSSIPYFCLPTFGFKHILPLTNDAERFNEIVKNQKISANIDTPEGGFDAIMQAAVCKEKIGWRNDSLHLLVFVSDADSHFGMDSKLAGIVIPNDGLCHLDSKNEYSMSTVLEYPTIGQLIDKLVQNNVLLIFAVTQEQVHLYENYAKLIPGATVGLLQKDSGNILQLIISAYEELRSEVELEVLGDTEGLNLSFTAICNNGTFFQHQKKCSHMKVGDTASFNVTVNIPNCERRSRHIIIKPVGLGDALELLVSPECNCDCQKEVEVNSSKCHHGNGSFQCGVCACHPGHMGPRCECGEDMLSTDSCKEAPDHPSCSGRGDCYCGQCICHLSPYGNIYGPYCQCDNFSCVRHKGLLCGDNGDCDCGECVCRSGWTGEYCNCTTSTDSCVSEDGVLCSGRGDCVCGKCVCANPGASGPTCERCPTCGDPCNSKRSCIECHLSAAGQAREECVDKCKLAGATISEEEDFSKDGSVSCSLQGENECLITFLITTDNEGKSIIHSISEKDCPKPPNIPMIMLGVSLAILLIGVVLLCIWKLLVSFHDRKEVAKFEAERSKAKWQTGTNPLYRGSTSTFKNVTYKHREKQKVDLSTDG
Procedure: as §1, §2

[3] = target: T3, cynomolgus αV on transfected HEK-293 cells (cynomolgus, UniProt A0A2K5WCD3 31-1048); assay: as above
T3 construct: Chain transfected alone; also called Cynomolgus alphaV
T3 sequence (A0A2K5WCD3 entry or part of it limits assumed): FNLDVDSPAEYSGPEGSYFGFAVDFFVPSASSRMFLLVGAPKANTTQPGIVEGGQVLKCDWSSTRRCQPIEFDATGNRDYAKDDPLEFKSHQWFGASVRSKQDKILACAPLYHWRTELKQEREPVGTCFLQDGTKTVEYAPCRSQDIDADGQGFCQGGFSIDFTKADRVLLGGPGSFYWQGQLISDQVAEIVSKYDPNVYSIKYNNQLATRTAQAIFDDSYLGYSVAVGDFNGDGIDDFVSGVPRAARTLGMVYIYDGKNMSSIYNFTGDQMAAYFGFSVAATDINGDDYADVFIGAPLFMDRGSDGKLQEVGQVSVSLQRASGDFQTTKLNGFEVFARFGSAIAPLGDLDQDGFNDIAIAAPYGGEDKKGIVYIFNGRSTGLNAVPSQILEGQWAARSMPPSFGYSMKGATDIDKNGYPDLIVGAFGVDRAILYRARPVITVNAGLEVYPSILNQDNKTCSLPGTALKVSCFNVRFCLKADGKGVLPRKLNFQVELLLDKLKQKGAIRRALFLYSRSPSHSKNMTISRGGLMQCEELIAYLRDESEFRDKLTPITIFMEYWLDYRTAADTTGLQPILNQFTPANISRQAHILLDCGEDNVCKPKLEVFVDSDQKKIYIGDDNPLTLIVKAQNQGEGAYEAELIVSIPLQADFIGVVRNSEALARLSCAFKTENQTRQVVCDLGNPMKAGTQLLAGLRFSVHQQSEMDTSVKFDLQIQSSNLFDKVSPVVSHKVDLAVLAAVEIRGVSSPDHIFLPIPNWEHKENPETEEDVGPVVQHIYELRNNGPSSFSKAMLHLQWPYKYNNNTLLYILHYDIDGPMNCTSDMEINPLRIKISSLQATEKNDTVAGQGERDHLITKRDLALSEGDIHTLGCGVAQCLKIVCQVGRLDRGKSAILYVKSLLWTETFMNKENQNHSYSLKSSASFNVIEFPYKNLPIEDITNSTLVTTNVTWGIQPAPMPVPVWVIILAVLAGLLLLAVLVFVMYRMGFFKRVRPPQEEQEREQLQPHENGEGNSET
Procedure: as §1, §2

cynomolgus αVβ6 on cells [4] = target: T1, cynomolgus αVβ6 on cells; assay: FACS, supernatant, HEK-293 cells transfected with cynomolgus αV and β6
Procedure: The assays were performed as follows. […] The cells were then pelleted, the supernatant discarded, and resuspended in FACS buffer and incubated for 30 minutes at 37° C. Cells were then washed twice with FACS buffer and resuspended in a final volume of 100 μL FACS buffer per well.
HEK-293 cells were transiently transfected with cynomolgus αV and cynomolgus β6. After 48 hours, the cells were collected and resuspended in FACS buffer to reach a final concentration of approximately 50,000 cells in 100 μL.
Approximately 100,000 cells total, comprising a 50:50 mix of CFSE-labeled A375M cells and transfected 293 cells, were used in each reaction as follows. 100 μL of CFSE-labeled A375M cells and 100 μL of 293 cells were dispensed into a V-bottom plate. The cells in the plate were pelleted at 1500 rpm for 3 minutes, and then resuspended in 100 μL FACS buffer. The pelleting step was repeated, and the FACS buffer supernatant was removed. The harvested antibody-containing supernatants, or control primary antibodies were added in a volume of 50 μL and the cells were resuspended. […] The plate was incubated on ice for 45 minutes, after which 100 μL FACS buffer was added to dilute the primary antibody. The cells were then pelleted by centrifuging at 1500 rpm for 3 minutes, and the pellet was resuspended in 100 μL FACS buffer. The pelleting step was repeated, and the FACS buffer supernatant was removed. Cells were then resuspended in the appropriate secondary antibody (5 μg/ml) with 7AAD dye (10 μg/ml), and stained on ice for 7 minutes. Then 150 μL of FACS buffer was added and the cells were pelLeted at 1500 rpm for 3 minutes, after which the cells were washed in 100 μL FACS buffer, pelleted, and then resuspended in 250 μL buffer and added to FACS tubes. Samples were analyzed on a high throughput FACS machine and analyzed using Cell Quest Pro software.

[5] = target: T4, human αVβ6 integrin on cells (human, UniProt P06756 31-1048; P18564 22-788); assay: FACS titration on K562 cells stably expressing human αVβ6, done as in Example 18, averaged geometric mean fluorescence
T4 construct: whole, on cells; also called alphaVbeta6
T4 sequence (P06756 31-1048, one chain of several): as the sequence (A0A2K5WCD3 entry or part of it limits assumed) above, with L118M, I264L, D270E, W562R, F609S, S660N, I753V, A840T counted along it

[6] = target: T4, human αVβ6 integrin on cells; assay: FACS, 293T-αVβ6 cells, 5 ug/ml
[7] = target: T4, human αVβ6 integrin on cells; assay: FACS, 293T-αVβ6 cells, 1.25 ug/ml
[8] = target: T4, human αVβ6 integrin on cells; assay: FACS, 293T-αVβ6 cells, 20 ug/ml
soluble αVβ6 = target: T5, soluble αVβ6 (human, UniProt P06756 31-992; P18564 22-709); assay: competition ELISA: soluble αVβ6 (250 ng/ml) pre-incubated with the mAb, then binding to plate-coated GST-LAP, bound αVβ6 detected with mAb 2075
T5 construct: extracellular domain; also called soluble antigen; soluble αVβ6 protein
T5 sequence (P06756 31-992, one chain of several): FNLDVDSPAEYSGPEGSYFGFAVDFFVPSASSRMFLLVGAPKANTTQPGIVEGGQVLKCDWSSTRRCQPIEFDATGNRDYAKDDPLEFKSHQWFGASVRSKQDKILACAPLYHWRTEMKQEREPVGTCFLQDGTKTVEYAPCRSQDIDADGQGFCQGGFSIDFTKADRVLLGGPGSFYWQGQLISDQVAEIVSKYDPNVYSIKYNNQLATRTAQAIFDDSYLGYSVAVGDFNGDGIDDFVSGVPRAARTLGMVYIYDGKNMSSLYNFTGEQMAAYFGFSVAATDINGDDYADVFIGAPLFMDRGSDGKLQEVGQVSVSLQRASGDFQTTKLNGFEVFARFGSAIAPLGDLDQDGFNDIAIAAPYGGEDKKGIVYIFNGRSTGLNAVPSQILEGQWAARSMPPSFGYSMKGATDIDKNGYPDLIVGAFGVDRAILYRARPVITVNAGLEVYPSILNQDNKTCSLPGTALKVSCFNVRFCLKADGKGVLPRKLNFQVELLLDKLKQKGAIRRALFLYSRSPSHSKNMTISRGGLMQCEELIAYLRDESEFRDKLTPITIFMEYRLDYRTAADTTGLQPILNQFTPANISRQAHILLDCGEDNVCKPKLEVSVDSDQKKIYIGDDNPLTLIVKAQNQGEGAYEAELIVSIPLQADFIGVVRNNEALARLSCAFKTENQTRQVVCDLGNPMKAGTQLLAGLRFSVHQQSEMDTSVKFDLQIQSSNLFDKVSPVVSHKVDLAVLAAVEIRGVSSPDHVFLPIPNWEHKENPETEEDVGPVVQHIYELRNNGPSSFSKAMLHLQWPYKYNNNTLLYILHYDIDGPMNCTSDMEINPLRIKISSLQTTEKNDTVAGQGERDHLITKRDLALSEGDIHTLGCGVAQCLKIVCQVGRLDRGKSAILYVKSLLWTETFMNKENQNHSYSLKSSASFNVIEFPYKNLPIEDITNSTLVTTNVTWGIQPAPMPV
Procedure: The wells were then washed three times using 300 μL/well of assay diluent. […] The wells were then washed three times using 300 μL/well of assay diluent, and incubated with goat anti-mouse IgG Fc-peroxidase at 400 ng/ml in assay diluent (50 μL/well) for one hour at room temperature. The wells were then washed three times using 300 μL/well of assay diluent, and developed using 1-step TMB (Neogen) at a total volume of 50 μL/well. After 15 minutes, the developing reaction was quenched with 50 μL/well of 1N Hydrochloric acid.

mouse αVβ6 on cells = target: T6, mouse αVβ6 on cells (mouse, UniProt P43406 31-1044; Q9Z0T9 22-787); assay: FACS, purified mAb, transiently transfected HEK-293 cells (parental cells 49)
T6 construct: whole, on cells; also called Mouse alphaVbeta6
T6 sequence (P43406 31-1044, chain 1 of 2): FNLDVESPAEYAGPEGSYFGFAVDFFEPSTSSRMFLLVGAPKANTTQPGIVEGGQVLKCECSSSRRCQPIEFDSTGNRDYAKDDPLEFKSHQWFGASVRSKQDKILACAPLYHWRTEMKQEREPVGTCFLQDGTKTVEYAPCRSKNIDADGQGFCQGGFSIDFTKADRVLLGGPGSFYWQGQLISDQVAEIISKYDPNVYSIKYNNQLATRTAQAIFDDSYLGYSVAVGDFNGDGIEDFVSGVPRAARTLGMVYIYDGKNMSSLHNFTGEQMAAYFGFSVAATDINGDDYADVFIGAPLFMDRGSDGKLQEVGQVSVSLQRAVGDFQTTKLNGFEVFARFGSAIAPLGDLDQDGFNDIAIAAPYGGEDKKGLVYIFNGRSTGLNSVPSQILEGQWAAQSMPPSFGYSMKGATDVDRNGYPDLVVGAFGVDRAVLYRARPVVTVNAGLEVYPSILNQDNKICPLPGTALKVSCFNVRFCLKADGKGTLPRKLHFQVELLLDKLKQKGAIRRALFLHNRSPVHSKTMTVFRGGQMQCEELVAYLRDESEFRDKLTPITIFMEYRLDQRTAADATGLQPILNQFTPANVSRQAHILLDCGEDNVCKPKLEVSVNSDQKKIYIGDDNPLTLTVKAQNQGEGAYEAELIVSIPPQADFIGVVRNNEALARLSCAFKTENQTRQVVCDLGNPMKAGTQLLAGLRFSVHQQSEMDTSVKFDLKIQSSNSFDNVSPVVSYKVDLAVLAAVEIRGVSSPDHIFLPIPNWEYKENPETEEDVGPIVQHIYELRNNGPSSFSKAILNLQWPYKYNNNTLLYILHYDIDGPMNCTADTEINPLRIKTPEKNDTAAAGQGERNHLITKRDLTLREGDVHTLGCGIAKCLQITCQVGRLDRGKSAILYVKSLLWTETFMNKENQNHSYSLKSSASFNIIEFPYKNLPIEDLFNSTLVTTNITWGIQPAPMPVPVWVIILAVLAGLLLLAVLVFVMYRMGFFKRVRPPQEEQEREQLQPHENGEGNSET
T6 sequence (Q9Z0T9 22-787, chain 2 of 2): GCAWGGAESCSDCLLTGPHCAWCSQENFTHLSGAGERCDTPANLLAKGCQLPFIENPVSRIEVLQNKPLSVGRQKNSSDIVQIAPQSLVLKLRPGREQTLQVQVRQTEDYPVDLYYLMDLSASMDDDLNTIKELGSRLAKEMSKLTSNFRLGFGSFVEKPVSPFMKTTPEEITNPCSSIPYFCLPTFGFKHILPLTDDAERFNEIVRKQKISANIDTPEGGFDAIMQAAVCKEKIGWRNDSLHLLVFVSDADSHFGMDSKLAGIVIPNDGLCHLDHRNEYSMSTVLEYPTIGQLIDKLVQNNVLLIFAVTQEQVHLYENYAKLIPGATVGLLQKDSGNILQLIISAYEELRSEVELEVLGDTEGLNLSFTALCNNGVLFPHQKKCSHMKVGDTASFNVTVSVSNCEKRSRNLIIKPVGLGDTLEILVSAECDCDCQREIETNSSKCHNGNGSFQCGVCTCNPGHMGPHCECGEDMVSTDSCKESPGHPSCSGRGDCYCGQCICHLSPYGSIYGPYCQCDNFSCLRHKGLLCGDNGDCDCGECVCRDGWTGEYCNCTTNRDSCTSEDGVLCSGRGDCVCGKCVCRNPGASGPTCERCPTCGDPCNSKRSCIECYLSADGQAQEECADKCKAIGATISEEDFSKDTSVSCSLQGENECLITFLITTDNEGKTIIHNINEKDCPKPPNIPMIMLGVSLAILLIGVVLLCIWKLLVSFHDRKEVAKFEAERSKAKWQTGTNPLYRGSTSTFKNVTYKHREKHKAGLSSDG
Procedure: as §1, §2

cynomolgus αVβ6 on cells [9] = target: T1, cynomolgus αVβ6 on cells; assay: as above
Procedure: as §1, §2

[10] = target: T3, cynomolgus αV on transfected HEK-293 …; assay: as above
Procedure: as §1, §2

[11] = target: T4, human αVβ6 integrin on cells; assay: FACS titration on K562 cells stably expressing human αVβ6, Cy5 goat anti-human detection, averaged geometric mean fluorescence
Procedure: K562 cells expressing αVβ6 were resuspended in filtered HBS buffer containing 1 mM of MgCl₂ and 1 mM of CaCl₂ at a concentration of approximately 6 million cells/mL. The cells were kept on ice. […] The 12th well in each row contained buffer only. Titrations were done in triplicate. Additional HBS and cells were added to each well so that the final volume was 300 μL/well and each well contained approximately 120,000 cells. […] The plates were then shaken for 40 minutes at 4° C., and thereafter were spun and washed once again three times with HBS. The Geometric Mean Fluorescence (GMF) of 20,000 “events” for each mAb concentration was recorded using a FACSCalibur instrument, and the corresponding triplicate titration points were averaged to give one GMF point for each mAb concentration. A plot of the averaged GMF as a function of molecular mAb concentration with Scientist software was fit nonlinearly using the equation:

percent of cells shifted (cynomolgus αVβ6 on cells [1]): 28%
percent of cells shifted [2]: 10%
percent of cells shifted [3]: 5%
Mac AVB6 % Cells Shifted (cynomolgus αVβ6 on cells [4]): 32%
Mac AVB6 GeoMean (cynomolgus αVβ6 on cells [4]): 35.2
B1: sc 133 (antibody, V domains shown)
VH: QVQLVQSGAEVKKPGASVKVSCKASGYTFTGYYMHWVRQAPGQGLEWMGWINPKSGDTNYAQKFQGRVTLTRDTSTSTAYMELSRLRSDDTAVYYCARRLDVWGQGTTVTVSS
VL: QSVLTQPPSVSAAPGQKVTISCSGSSSNIGNNYVSWYQQLPGTAPKLLIYDNNKRPSGIPDRFSGSKSGTSATLGITGLQTGDEADYYCGTWNSSLSAGYVFGTGTKVTV
notes: Fully human XenoMouse mAb

Mac AVB6 % Cells Shifted (cynomolgus αVβ6 on cells [4]): 25%
Mac AVB6 GeoMean (cynomolgus αVβ6 on cells [4]): 22.8
B2: sc 58 (antibody, V domains shown)
VH: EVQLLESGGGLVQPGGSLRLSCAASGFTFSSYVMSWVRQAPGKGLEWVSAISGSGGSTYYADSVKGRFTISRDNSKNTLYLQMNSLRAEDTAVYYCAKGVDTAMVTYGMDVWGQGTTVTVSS
VL: SYELTQPPSVSVSPGQTARITCSGDALPKKYAYWYQQKSGQAPVLVIYDDSKRPSGIPERFSGSSSGTMATLTISGAQVEDEADYYCYSTDSSGNHRVFGGGTKLTVL
notes: Fully human XenoMouse mAb; also called sc 058

Mac AVB6 % Cells Shifted (cynomolgus αVβ6 on cells [4]): 55%
Mac AVB6 GeoMean (cynomolgus αVβ6 on cells [4]): 66.4
B3: sc 264 (antibody, V domains shown)
VH: QVQLQESGPGLVKPSQTLSLTCTVSGGSISSGGYYWSWIRQHPGKGLEWIGYIYYSGRTYNNPSLKSRVTISVDTSKNQFSLKLSSVTAADTAVYYCARVATGRGDYHFYAMDVWGQGTTVTVSS
VL: SYELTQPSSVSVSPGQTARITCSGDVLAKKSARWFHQKPGQAPVLVIYKDSERPSGIPERFSGSSSGTTVTLTISGAQVEDEAAYYCYSAADNNLVFGGGTKLTVL
notes: Fully human XenoMouse mAb; Has RGD in heavy chain CDR3

EC50 (read off the curve) [5]: ~80 pM
Geometric Mean Shift [6]: 6840 arbitrary units
Geometric Mean Shift [7]: 4890 arbitrary units
Geometric Mean Shift [8]: 7240 arbitrary units
B4: sc 264 RAD (antibody, V domains shown)
VH: B3 VH with G105A
VL: B3 VL

IC50 (read off the curve) (soluble αVβ6): ~0.2 µg/mL
percent of cells shifted (mouse αVβ6 on cells): 53%
percent of cells shifted (cynomolgus αVβ6 on cells [9]): 38%
percent of cells shifted [10]: 48%
Mac AVB6 % Cells Shifted (cynomolgus αVβ6 on cells [4]): 53%
Mac AVB6 GeoMean (cynomolgus αVβ6 on cells [4]): 63.1
B5: sc 298 (antibody, V domains shown)
VH: QVQLVESGGGVVQPGRSLRLSCAASGFTFSSYGMHWVRQAPGKGLEWVAVIWYGGSNKYYADSVKGRFTISRDNSKNTLYLQMNSLRAEDTAVYYCARDLAARRGDYYYYGMDVWGQGTTVTVSS
VL: SSELTQDPVVSVALGQTVRITCQGDSLRSYYLSWYQQKPGQAPVLVIYGKNNRPSGIPDRFSGSNSGNTASLTITGAQAEDEADYYCNSRDSSGNHLFGGGTKLTVL
notes: Fully human XenoMouse mAb

Mac AVB6 GeoMean (cynomolgus αVβ6 on cells [4]): 61.8
B6: sc 374 (antibody, V domains shown)
VH: B5 VH with G54D, D99T, L100E, A101G, A102I, R103A, R104A, G105R, D106L
VL: not shown
notes: Fully human XenoMouse mAb

IC50 (read off the curve) (soluble αVβ6): ~0.3 µg/mL
Mac AVB6 GeoMean (cynomolgus αVβ6 on cells [4]): 78.5
B7: sc 254 (antibody, V domains shown)
VH: QVQLQESGPGLVKPSQTLSLTCTVSGGSISSGGYYWSWIRQHPGKGLEWIGYIYYSGSTYYNPSLKSRVTISVDTSKNQFSLKLSSVTAADTAMYYCARYRGPAAGRGDFYYFGMDVWGQGTTVTVSS
VL: DIVMTQTPLSLSVTPGQPASIFCKSSQSLLNSDGKTYLCWYLQKPGQPPQLLIYEVSNRFSGVPDRFSGSGSGTDFTLKISRVEAEDVGVYYCMQGIQLPWAFFGQGTKVEIK
notes: Fully human XenoMouse mAb

IC50 (read off the curve) (soluble αVβ6): ~0.2 µg/mL
EC50 (read off the curve) [11]: ~60 pM
Mac AVB6 GeoMean (cynomolgus αVβ6 on cells [4]): 23.9
B8: sc 188 (antibody, V domains shown)
VH: QVQLQESGPGLVKPSQTLSLTCTVSGGSISSGVYYWTWIRQHPGNGLEWIGYIYYSGSTSYNPSLKSRVTISVDTSKKQFSLNLTSVTAADTAVYYCAREGPLRGDYYYGLDVWGQGTTVTVSS
VL: EIVLTQSPGTLSLSPGERATLSCRAGQTISSRYLAWYQQKPGQAPRPLIYGASSRATGIPDRFSGSGSGTDFTLTISRLEPEDFAVYYCQQYGSSPRTFGQGTKVEIK
notes: Fully human XenoMouse mAb; Has a glycosylation site (NLT) in heavy chain FR3

Geometric Mean Shift [6]: 6820 arbitrary units
Geometric Mean Shift [7]: 4530 arbitrary units
Geometric Mean Shift [8]: 6760 arbitrary units
B9: sc 188 SDM (antibody, V domains shown)
VH: B8 VH with N83K
VL: B8 VL

Mac AVB6 % Cells Shifted (cynomolgus αVβ6 on cells [4]): 23%
Mac AVB6 GeoMean (cynomolgus αVβ6 on cells [4]): 30.2
B10: sc 49 (antibody, V domains shown)
VH: QVQLQESGPGLVKPSQTLSLTCTVAGGSIRSGDYYWSWIRQHPGKGLEWIGNIYYSGSTYYNPSLKSRITISVATSRNQFSLKLTSVTAADTAVYYCARGGAITIFGVFDYWGQGTLVTVSS
VL: not shown
notes: Fully human XenoMouse mAb; also called sc 049

Mac AVB6 % Cells Shifted (cynomolgus αVβ6 on cells [4]): 14%
Mac AVB6 GeoMean (cynomolgus αVβ6 on cells [4]): 33
B11: sc 161 (antibody, V domains shown)
VH: EVQLVQSGAEVKKPGESLKISCKGSGYSFTSYWIGWVRQMPGKGLEWMGIIYPGDSDTRYSPSFQGQVTISADKSISTAYLQWSSLKASDTAMYYCARHGIAAAGFYYYYMDVWGQGTTVTVSS
VL: EIVLTQSPDTLSLSPGERASLSCRASQNVNRNYLVWYQQKPGQAPRLLIYGTSNRATGIPDRFSGSGSGTDFTLTISRLEPEDFAVYYCQQCGSLPFTFGPGTKVDIKR
notes: Fully human XenoMouse mAb

Mac AVB6 % Cells Shifted (cynomolgus αVβ6 on cells [4]): 35%
Mac AVB6 GeoMean (cynomolgus αVβ6 on cells [4]): 37
B12: sc 97 (antibody, V domains shown)
VH: EVQLVQSGAEVKKPGESLKISCKGSGYSFTSYWIGWVRQMPGKGLEWMGIIYPGDSDTRYSPSFQGQVILSADKSISTAYLQWSSLKASDTAMYYCARHDESSGYYYVFDIWGQGTMVTVSS
VL: SYELTQPPSVSVSPGQTARITCSGDALPKKYAYWYQQKSGQAPVLVIYEDIKRPSGIPERFSGSSSGTMATLTISGAQVEDEADYYCYSTDSSGNHWVFFGGGTKLTVL
notes: Fully human XenoMouse mAb; also called sc 097

Mac AVB6 % Cells Shifted (cynomolgus αVβ6 on cells [4]): 19%
Mac AVB6 GeoMean (cynomolgus αVβ6 on cells [4]): 33.5
B13: sc 320 (antibody, V domains shown)
VH: EVQLVESGGGLVKPGGSLRLSCAASGYTFTNYIMHWVRQAPGKGLEWVSSISISSSYIYYADSVKGRFTISRDNAKNSLYLQMNSLRAEDTAVYYCARDPVPLERRDYYYGMDVWGQGTTVTVSS
VL: QSVLTQPPSMSAAPGQKVTISCSGSSSNIGNNYVSWYQQLPGTAPKLLIYDNNKRPSGIPDRFSGSKSGTSATLGITGLQTGDEADYYCGTWDSSLSAGVFGGGTKLTVL
notes: Fully human XenoMouse mAb

Mac AVB6 % Cells Shifted (cynomolgus αVβ6 on cells [4]): 35%
Mac AVB6 GeoMean (cynomolgus αVβ6 on cells [4]): 33.4
B14: sc 277 (antibody, V domains shown)
VH: EVQLVQSGAEVKKPGESLKISCKGSGYSFPSYWIGWVRQMPGKGLEWMGIIYPGDSDTRYSPSFQGQVTISADKSISTAYLQWSSLKASDTAMYYCARHPMEDGMDVWGQGTTVTVSS
VL: SYELTQPPSVSVSPGQTARITCSGDALPKKYAFWYQQKSGQAPVLVIYDDNKRPSGIPERFSGSSSGTMATLTITGAQVEDEADYYCYSTDSSGHHVFGGGTKLTVL
notes: Fully human XenoMouse mAb
